Consider 9 molecules from publication PMC10397247.

Holding throughout (assay): two-hybrid library CCmax;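 also: natural log of median RNA to DNA barcode read ratio; higher means stronger binding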
Assay [1] addresses T1, O2-AA.
T1 chain: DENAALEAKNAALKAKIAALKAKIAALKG
The settings on record: mean of both orientations.

Assay [2] deals with T2, O3-AA.
T2 chain: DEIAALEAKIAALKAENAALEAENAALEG
The settings on record: mean of both orientations.

For assay [3], the target named is T3, P6-AA-12HAA-T.
T3 chain: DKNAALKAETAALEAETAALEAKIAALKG

Assay [4] deals with T4, P6-AA-12HAA-Y.
T4 chain: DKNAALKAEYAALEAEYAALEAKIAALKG
The settings on record: mean of both orientations.

Assay [5] addresses T5, 4H1146-AA.
T5 chain: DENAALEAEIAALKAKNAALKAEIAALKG
The settings on record: mean of both orientations.

The target in assay [6] is T6, 4H3029-AA.
T6 chain: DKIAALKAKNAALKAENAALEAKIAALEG
The settings on record: mean of both orientations.

For assay [7], the target named is T7, 4H3417-AA.
T7 chain: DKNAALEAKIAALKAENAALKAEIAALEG
The settings on record: mean of both orientations.

Assay [8] concerns the target T8, 4H3446-AA.
T8 chain: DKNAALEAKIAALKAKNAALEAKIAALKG
The settings on record: mean of both orientations.

Assay [9] concerns the target T9, 4H656-AA.
T9 chain: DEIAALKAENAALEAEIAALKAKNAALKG
The settings on record: mean of both orientations.

In assay [10] the target is T10, 4H2760-AA.
T10 chain: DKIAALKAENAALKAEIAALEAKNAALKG
The settings on record: mean of both orientations.

Assay [11] concerns the target T11, 4H3974-AA.
T11 chain: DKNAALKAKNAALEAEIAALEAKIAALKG
The settings on record: mean of both orientations.

Assay [12] concerns the target T12, P5-AA-1HAA-A.
T12 chain: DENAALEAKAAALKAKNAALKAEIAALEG
The settings on record: mean of both orientations.

Assay [13] concerns the target T13, P5-AA-1HAA-H.
T13 chain: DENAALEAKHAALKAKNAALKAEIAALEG
The settings on record: mean of both orientations.

The target of assay [14] is T14, P5-AA-1HAA-L.
T14 chain: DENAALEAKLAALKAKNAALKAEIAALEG
The settings on record: mean of both orientations.

The target in assay [15] is T15, P5-AA-1HAA-N.
T15 chain: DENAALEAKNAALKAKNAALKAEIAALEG
The settings on record: mean of both orientations.

Assay [16] concerns the target T16, P5-AA-1HAA-T.
T16 chain: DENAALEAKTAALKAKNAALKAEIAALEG

The target of assay [17] is T17, P5-AA-1HAA-V.
T17 chain: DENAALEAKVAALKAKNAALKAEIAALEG
The settings on record: mean of both orientations.

For assay [18], the target named is T18, P5-AA-1HGe-D.
T18 chain: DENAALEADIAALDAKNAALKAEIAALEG
The settings on record: mean of both orientations.

For assay [19], the target named is T19, P5-AA-1HGe-M.
T19 chain: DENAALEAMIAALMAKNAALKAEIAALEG
The settings on record: mean of both orientations.

Assay [20] addresses T20, P5-AA-1HGe-S.
T20 chain: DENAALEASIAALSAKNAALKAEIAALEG
The settings on record: mean of both orientations.

The target of assay [21] is T21, P5-AA-1HGe-T.
T21 chain: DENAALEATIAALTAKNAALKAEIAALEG
The settings on record: mean of both orientations.

Assay [22] concerns the target T22, P6-AA-12HGe-A.
T22 chain: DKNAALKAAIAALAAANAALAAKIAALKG
The settings on record: mean of both orientations.

Assay [23] has as its target T23, P6-AA-12HGe-Q.
T23 chain: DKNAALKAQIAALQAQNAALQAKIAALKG
The settings on record: mean of both orientations.

Assay [24] concerns the target T24, P6-AA-12HGe-S.
T24 chain: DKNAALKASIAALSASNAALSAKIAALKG
The settings on record: mean of both orientations.

The target of assay [25] is T25, P6-AA-1HAA-D.
T25 chain: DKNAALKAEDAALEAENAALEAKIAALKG
The settings on record: mean of both orientations.

Assay [26] deals with T26, P6-AA-1HAA-S.
T26 chain: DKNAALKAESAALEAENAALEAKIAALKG
The settings on record: mean of both orientations.

In assay [27] the target is T27, P6-AA-1HAA-V.
T27 chain: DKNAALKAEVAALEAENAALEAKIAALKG
The settings on record: mean of both orientations.

Assay [28] deals with T28, P6-AA-1HGe-T.
T28 chain: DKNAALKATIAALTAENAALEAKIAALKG
The settings on record: mean of both orientations.

Assay [29] concerns the target T29, P6-AA-1HGe-W.
T29 chain: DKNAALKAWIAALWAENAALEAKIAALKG
The settings on record: mean of both orientations.

The target in assay [30] is T30, 4H1350-AA.
T30 chain: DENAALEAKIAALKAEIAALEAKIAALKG

Assay [31] addresses T31, 4H2187-AA.
T31 chain: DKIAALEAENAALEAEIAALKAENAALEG
The settings on record: mean of both orientations.

For assay [32], the target named is T32, 4H2646-AA.
T32 chain: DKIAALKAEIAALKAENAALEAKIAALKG
The settings on record: mean of both orientations.

The target of assay [33] is T33, 4H2985-AA.
T33 chain: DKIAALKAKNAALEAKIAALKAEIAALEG
The settings on record: mean of both orientations.

Assay [34] deals with T34, 4H327-AA.
T34 chain: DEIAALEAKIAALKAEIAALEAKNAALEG
The settings on record: mean of both orientations.

Assay [35] concerns the target T35, 4H4033-AA.
T35 chain: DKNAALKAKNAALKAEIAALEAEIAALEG
The settings on record: mean of both orientations.

Assay [36] addresses T36, 4H816-AA.
T36 chain: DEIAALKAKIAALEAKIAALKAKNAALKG
The settings on record: mean of both orientations.

Assay [37] addresses T37, 4H355-AA.
T37 chain: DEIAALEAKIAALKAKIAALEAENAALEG
The settings on record: mean of both orientations.

For assay [38], the target named is T38, 4H2143-AA.
T38 chain: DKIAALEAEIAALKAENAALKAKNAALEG
The settings on record: mean of both orientations.

Assay [39] addresses T39, APC4011-AA.
T39 chain: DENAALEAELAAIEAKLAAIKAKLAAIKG
The settings on record: mean of both orientations.

The target in assay [40] is T40, APC4264-AA.
T40 chain: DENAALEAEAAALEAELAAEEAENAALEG
The settings on record: mean of both orientations.

Assay [41] concerns the target T41, APC8191-AA.
T41 chain: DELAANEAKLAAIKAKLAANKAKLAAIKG
The settings on record: mean of both orientations.

Assay [42] addresses T42, APC8910-AA.
T42 chain: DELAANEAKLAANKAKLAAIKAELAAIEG
The settings on record: mean of both orientations.

B1: 4H171-AA (peptide)
chain: DEIAALEAENAALEAKIAALKAENAALEG
Consider B1, for which the interaction score in [1] was -1.24; in assay [2], -1.73.

B2: 4H1385-AA (peptide)
chain: DENAALEAKIAALKAKIAALKAEIAALEG
As to B2, the interaction score turned out to be 1.61 in assay [3] and 2.29 in [4].

B3: 4H1064-AA (peptide)
chain: DENAALEAEIAALEAKIAALEAKNAALKG
Regarding B3, the interaction score is -0.282 in [5]; -1.16 in [6]; -1.43 in assay [7]; -1.11 in assay [8]; -1.36 in assay [9].

B4: 4H249-AA (peptide)
chain: DEIAALEAENAALKAKNAALKAEIAALEG
Turning to B4, the interaction score was 1.68 in [10] and -0.0812 in assay [11].

B5: 4H3606-AA (peptide)
chain: DKNAALKAEIAALEAENAALEAKIAALKG
For B5, the interaction score was determined as 2.07 in [12]; 2.02 in assay [13]; 2.39 in assay [14]; 1.72 in assay [15]; 1.75 in [16]; 2.23 in assay [17]. The interaction score in assay [18] is 1.14; in [19] it was 2.26; in [20], 2.03; in [21] it was 2.43.

B6: 4H1401-AA (peptide)
chain: DENAALEAKIAALKAKNAALKAEIAALEG
B6: the interaction score was -0.0521 in assay [22]; 1.69 in assay [23]; -0.834 in assay [24]; 0.667 in assay [25]; 1.9 in assay [26]; 2.18 in assay [27]. In addition, the interaction score in assay [28] amounted to 2.05; in [29] it was 1.14.

B7: 4H1350-AA (peptide)
chain: DENAALEAKIAALKAEIAALEAKIAALKG
Take B7: the interaction score in assay [30] is 2.09; in assay [31], -1.97; in [32], -0.455; in assay [33], 0.636; in assay [34], 2.32; in [35], -0.0842. The interaction score in [36] was 1.16.

B8: 4H1257-AA (peptide)
chain: DENAALEAENAALKAKIAALKAEIAALEG
B8: the interaction score in [37] is -1.88.

B9: 4H1845-AA (peptide)
chain: DENAALKAKIAALEAKNAALEAKIAALEG
Turning to B9, the interaction score in assay [38] is -1.68; in [39], -1.65; in [40], -1.79; in assay [41] it was -1.67; in assay [42], -1.69.
